Data published in US20190241623A1 (EVAXION BIOTECH A S, published 2019).

B1: SEQ ID NO 21 (peptide)
peptide: EPINFILKSSTKLKA
notes: 15-mer peptide selected in silico from the S. aureus proteomes
B2: SEQ ID NO 24 (peptide)
peptide: IIKKLFRLPAIKRFE
notes: as for B1
B3: SEQ ID NO 23 (peptide)
peptide: GLYFVAMNNLKAAGQ
notes: as for B1
B4: SEQ ID NO 38 (peptide)
peptide: VLFYLRSNKRQIIEK
notes: as for B1
B5: SEQ ID NO 39 (peptide)
peptide: WKRIGRLKSIPIFMY
notes: as for B1
B6: SEQ ID NO 35 (peptide)
peptide: STFIYKIANERLFSR
notes: as for B1
B7: SEQ ID NO 31 (peptide)
peptide: LMGIRAFRKLLPNIP
notes: as for B1
B8: SEQ ID NO 40 (peptide)
peptide: YFRFQYFNPLKSERY
notes: as for B1
B9: SEQ ID NO 22 (peptide)
peptide: FLKLFRITNPIARGL
notes: as for B1
B10: SEQ ID NO 33 (peptide)
peptide: QRHFQIGYNRAARII
notes: as for B1
B11: SEQ ID NO 34 (peptide)
peptide: SSNVYMFKTALKLAG
notes: as for B1
B12: SEQ ID NO 32 (peptide)
peptide: MHFIAISINHRTADV
notes: as for B1
B13: SEQ ID NO 30 (peptide)
peptide: LDQIIAQANLRLATM
notes: as for B1
B14: SEQ ID NO 29 (peptide)
peptide: KTLFVALNNKARIPE
notes: as for B1
B15: SEQ ID NO 27 (peptide)
peptide: KHQIRMLSIPRDTIS
notes: as for B1
B16: SEQ ID NO 28 (peptide)
peptide: KRIFKMSPIHHHFEL
notes: as for B1
B17: SEQ ID NO 37 (peptide)
peptide: TSQFHVLRALRLAQK
notes: as for B1
B18: SEQ ID NO 26 (peptide)
peptide: KADALKAITALKLQM
notes: as for B1
B19: SEQ ID NO 36 (peptide)
peptide: SVTIIKSLQAIRVPF
notes: as for B1
B20: SEQ ID NO 25 (peptide)
peptide: ILLGYFVAQRALVKA
notes: as for B1

molecular target: T1, MHC Class II molecule DRB1*04:01 (UniProt P01903 26-216; P01911 30-227); experiment: peptide:MHC II complex stability assay (Immunitrack)
T1 construct: Assay done by Immunitrack; the construct of the MHC II molecule is not described

| Binder | binding result |
| --- | --- |
| B1 | binds |
| B2 | binds |
| B3 | binds |
| B4 | binds |
| B5 | binds |
| B6 | binds |
| B7 | binds |
| B8 | binds |
| B9 | binds |
| B10 | binds |
| B11 | binds |
| B12 | binds |
| B13 | binds |
| B14 | binds |
| B15 | binds |
| B16 | binds |
| B17 | binds |
| B18 | binds |
| B19 | binds |
| B20 | binds |

molecular target: T2, MHC Class II molecule DRB1*01:01 (UniProt P01903 26-216; P01911 30-227); experiment: as above
T2 construct: Assay done by Immunitrack; the construct of the MHC II molecule is not described

| Binder | binding result |
| --- | --- |
| B1 | binds |
| B2 | binds |
| B3 | binds |
| B4 | binds |
| B5 | binds |
| B6 | binds |
| B7 | binds |
| B8 | binds |
| B9 | binds |
| B10 | binds |
| B11 | binds |
| B12 | binds |
| B13 | binds |
| B14 | binds |
| B15 | binds |
| B16 | binds |
| B17 | binds |
| B18 | binds |
| B19 | binds |
| B20 | binds |
